Kd, Ki and fold higher affinity for Ub than Nedd8 data for 4 substances are collected here from publication PMC6669086.

Like-named read-outs stand apart in the source and are kept apart here.

The target of test [1] is ubiquitin (Homo sapiens) (UniProt P0CG48). Conditions: cited from earlier work.
Test [2] concerns the target Atto532-tUI (UniProt Q9UMX0). As to the kind of experiment: other fluorescence titration.
The target in another test is tUI (UniProt Q9UMX0). Description: other fluorescence titration.
The target in test [3] is Atto532-tUI (UniProt Q9UMX0). Description: stopped-flow fluorescence kinetics.
Test [4] concerns the target ubiquitin (Homo sapiens) (UniProt P0CG48). Conditions: cited from earlier work. This is another data set of the same source.

Chain of IsoT BUZ BUZ (P45974 173-289): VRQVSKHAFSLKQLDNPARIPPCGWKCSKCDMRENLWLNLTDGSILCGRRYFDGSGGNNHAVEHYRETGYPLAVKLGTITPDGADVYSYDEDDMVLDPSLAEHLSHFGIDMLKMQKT
Chain of Rabex5 RUZ RUZ (Q9UJ41 13-47): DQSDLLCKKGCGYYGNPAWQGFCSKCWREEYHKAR
Chain of Nedd8 (Q15843 1-76): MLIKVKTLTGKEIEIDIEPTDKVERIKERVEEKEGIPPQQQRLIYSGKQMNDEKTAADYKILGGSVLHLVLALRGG

Turning to Rabex5 RUZ RUZ (from UniProt Q9UJ41), the Kd with ubiquitin (Homo sapiens) [1] was 12000 nM.
“ubiquitin (free Ub) (from UniProt P0CG48 1-76) (natural protein)”: the results for the Kd with Atto532-tUI [2] and in the test with Atto532-tUI [3] were 0.066 nM and 0.0564 nM, respectively. In addition, the Ki in the test with tUI came out at 0.194 nM.
With IsoT BUZ BUZ (from UniProt P45974), the Kd in the test with ubiquitin (Homo sapiens) [4] was 3000 nM.
On to “Nedd8 (from UniProt Q15843 1-76) (natural protein)”, for which the fold higher affinity for Ub than Nedd8 in the test with Atto532-tUI [2] came to 120 fold.

One may read the Kd as the concentration at which binding is half-saturated. One may read the Ki as the equilibrium dissociation constant of an inhibitor or competing ligand from its target. A low value points to higher affinity.
